Data as given in the FLAb antibody collection.

Assay: patients with anti-drug antibodies; higher = more immunogenic

Row | Protein | patients with anti-drug antibodies
1 | unnamed (protein) chain 1: QVQLKESGPGLVAPSQSLSITCTVSGFSVTNYGVHWVRQPPGKGLEWLGVIWAGGITNYNSAFMSRLSISKDNSKSQVFLKMNSLQIDDTAMYYCASRGGHYGYALDYWGQGTSVTVSS chain 2: SIVMTQTPKFLLVSAGDRVTITCKASQSVSNDVTWYQQKAGQSPKLLIYSASNRYSGVPDRFTGSGYGTAFTFTISTVQAEDLAVYFCQQDYSSFGGGTKLEIK | 100%
2 | unnamed (protein) chain 1: EVQLVESGGGLVQPGGSLRLSCAASGFTFNNYAMNWVRQAPGKGLDWVSTISGSGGTTNYADSVKGRFIISRDSSKHTLYLQMNSLRAEDTAVYYCAKDSNWGNFDLWGRGTLVTVSS chain 2: not shown | 3.9%
3 | unnamed (protein) chain 1: QVQLQESGPGLVKPSETLSLTCTVSGFSLTSYIVDWIRQPPGKGLEWIGVIWAGGSTGYNSALRSRVSITKDTSKNQFSLKLSSVTAADTAVYYCASAAYYSYYNYDGFAYWGQGTLVTVSS chain 2: DVVMTQSPLSLPVTLGQPASISCKSSQSLLYTDGKTYLYWFLQRPGQSPRRLIYLVSKLDSGVPDRFSGSGSGTDFTLKISRVEAEDVGVYYCLQSTHFPHTFGGGTKVEIK | 4%
4 | unnamed (protein) chain 1: EVQLLESGGGLVQPGGSLRLSCAASGFTFSIYSMNWVRQAPGKGLEWVSSIGSSGGTTYYADSVKGRFTISRDNSKNTLYLQMNSLRAEDTAVYYCAGSQWLYGMDVWGQGTTVTVSS chain 2: DIQMTQSPSSLSASVGDRVTITCRSSQRIMTYLNWYQQKPGKAPKLLIFVASHSQSGVPSRFRGSGSETDFTLTISGLQPEDSATYYCQQSFWTPLTFGGGTKVEIK | 7.4%
5 | unnamed (protein) chain 1: EVQLVESGGGLVRPGGSLRLSCAASGFTFSNYDMHWVRQATGKGLEWVSAITAAGDIYYPGSVKGRFTISRENAKNSLYLQMNSLRAGDTAVYYCARGRYSGSGSYYNDWFDPWGQGTLVTVSS chain 2: EIVLTQSPATLSLSPGERATLSCRASQSVSSYLAWYQQKPGQAPRLLIYDASNRATGIPARFSGSGSGTDFTLTISSLEPEDFAVYYCQQRSNWPLTFGGGTKVEIK | 3.6%
6 | unnamed (protein) chain 1: EVKLEESGGGLVQPGGSMKLSCVASGFIFSNHWMNWVRQSPEKGLEWVAEIRSKSINSATHYAESVKGRFTISRDDSKSAVYLQMTDLRTEDTGVYYCSRNYYGSTYDYWGQGTTLTVSS chain 2: DILLTQSPAILSVSPGERVSFSCRASQFVGSSIHWYQQRTNGSPRLLIKYASESMSGIPSRFSGSGSGTDFTLSINTVESEDIADYYCQQSHSWPFTFGSGTNLEVK | 30.5%
7 | unnamed (protein) chain 1: EVQLVQSGAEVKKPGASVKVSCKASGYRFTNYWIHWVRQAPGQGLEWIGGINPGNNYATYRRKFQGRVTMTADTSTSTVYMELSSLRSEDTAVYYCTREGYGNYGAWFAYWGQGTLVTVSS chain 2: DVQVTQSPSSLSASVGDRVTITCRSSQSLANSYGNTFLSWYLHKPGKAPQLLIYGISNRFSGVPDRFSGSGSGTDFTLTISSLQPEDFATYYCLQGTHQPYTFGQGTKVEIK | 2%
8 | unnamed (protein) chain 1: QVQLVESGGGVVQPGRSLRLSCAASGFTFSSYGMHWVRQAPGKGLEWVAVISYEESNRYHADSVKGRFTISRDNSKITLYLQMNSLRTEDTAVYYCARDGGIAAPGPDYWGQGTLVTVSS chain 2: DIVMTQSPLSLTVTPGEPASISCRSSQSLLYSNGYNYLDWYLQKPGQSPQVLISLGSNRASGVPDRFSGSGSGTDFTLKISRVEAEDVGVYYCMQARQTPFTFGPGTKVDIR | 1.8%
9 | unnamed (protein) chain 1: EVQLVESGGGLVKPGGSLKLSCAASGFKFSRYAMSWVRQAPGKRLEWVATISSGGSYIYYPDSVKGRFTISRDNVKNTLYLQMSSLRSEDTAMYYCARRDYDLDYFDSWGQGTLVTVSS chain 2: DIQMTQSPSSLSASVGDRVTITCKASRDIRSYLTWYQQKPGKAPKTLIYYATSLADGVPSRFSGSGSGQDYSLTISSLESDDTATYYCLQHGESPFTLGSGTKLEIK | 15.8%
10 | unnamed (protein) chain 1: QVQLVQSGAEVKKPGSSVKVSCKASGYSFTDYHIHWVRQAPGQGLEWMGVINPMYGTTDYNQRFKGRVTITADESTSTAYMELSSLRSEDTAVYYCARYDYFTGTGVYWGQGTLVTVSS chain 2: DIVMTQTPLSLSVTPGQPASISCRSSRSLVHSRGNTYLHWYLQKPGQSPQLLIYKVSNRFIGVPDRFSGSGSGTDFTLKISRVEAEDVGVYYCSQSTHLPFTFGQGTKLEIK | 8.5%
11 | unnamed (protein) chain 1: EVQLVESGGGVVQPGRSLRLSCSASGFDFTTYWMSWVRQAPGKGLEWIGEIHPDSSTINYAPSLKDRFTISRDNAKNTLFLQMDSLRPEDTGVYFCASLYFGFPWFAYWGQGTPVTVSS chain 2: DIQLTQSPSSLSASVGDRVTITCKASQDVGTSVAWYQQKPGKAPKLLIYWTSTRHTGVPSRFSGSGSGTDFTFTISSLQPEDIATYYCQQYSLYRSFGQGTKVEIK | 0%
12 | unnamed (protein) chain 1: EVQLLESGGGLVQPGGSLRLSCAASGFTFSHYIMMWVRQAPGKGLEWVSGIYSSGGITVYADSVKGRFTISRDNSKNTLYLQMNSLRAEDTAVYYCAYRRIGVPRRDEFDIWGQGTMVTVSS chain 2: DIQMTQSPSTLSASVGDRVTITCRASQSISSWLAWYQQKPGKAPKLLIYKASTLESGVPSRFSGSGSGTEFTLTISSLQPDDFATYYCQQYNTYWTFGQGTKVEIK | 7%
13 | unnamed (protein) chain 1: QVTLRESGPALVKPTQTLTLTCTVSGFSLSAYSVNWIRQPPGKALEWLAMIWGDGKIVYNSALKSRLTISKDTSKNQVVLTMTNMDPVDTATYYCAGDGYYPYAMDNWGQGSLVTVSS chain 2: DIVMTQSPDSLSVSLGERATINCRASKSVDSYGNSFMHWYQQKPGQPPKLLIYLASNLESGVPDRFSGSGSGTDFTLTISSLQAEDVAVYYCQQNNEDPRTFGGGTKVEIK | 30%
14 | unnamed (protein) chain 1: QVQLVQSGGGLVQPGGSLRLSCAASGFTFSSYYMSWVRQAPGKGLEWVSGIYSDGTTHYGDSVKGRFTISRDNAKNTVYLQLNSLRAEDTAMYYCAKGAGPTWWYALDAWGQGTLVTVSS chain 2: DIQLTQSPSSVSVSVGERVTIDCKSSQSVLSASNTYLNWYQQKPGQAPQLLIYYASTRESGVPDRFSGSGSGTDFTLTISSLQAEDAAVYYCQQAYRAPVTFGQGTKLEIK | 0%
15 | unnamed (protein) chain 1: EVQLVESGGGLVQPGGSLRLSCAASGFSFSDFAMSWVRQAPGKGLEWVATIGRVAFHTYYPDSMKGRFTISRDNSKNTLYLQMNSLRAEDTAVYYCARHRGFDVGHFDFWGQGTLVTVSS chain 2: DIQMTQSPSSLSASVGDRVTITCRSSETLVHSSGNTYLEWYQQKPGKAPKLLIYRVSNRFSGVPSRFSGSGSGTDFTLTISSLQPEDFATYYCFQGSFNPLTFGQGTKVEIK | 18%
16 | unnamed (protein) chain 1: QVQLVQSGAEVMKPGSSVKVSCKASGYTFSWYWLEWVRQAPGHGLEWMGEIDPGTFTTNYNEKFKARVTFTADTSTSTAYMELSSLRSEDTAVYYCARFSHFSGSNYDYFDYWGQGTLVTVSS chain 2: EIVMTQSPATLSVSPGERATLSCRASQSIGTNIHWYQQKPGQAPRLLIYYASESISGIPARFSGSGSGTEFTLTISSLQSEDFAVYYCQQSWSWPTTFGGGTKVEIK | 6.3%
17 | unnamed (protein) chain 1: QVQLVQSGAEVKKPGSSVKVSCKASGYTFTDYNMHWVRQAPGQGLEWIGYIYPYNGGTGYNQKFKSKATITADESTNTAYMELSSLRSEDTAVYYCARGRPAMDYWGQGTLVTVSS chain 2: DIQMTQSPSSLSASVGDRVTITCRASESVDNYGISFMNWFQQKPGKAPKLLIYAASNQGSGVPSRFSGSGSGTDFTLTISSLQPDDFATYYCQQSKEVPWTFGQGTKVEIK | 0%
18 | unnamed (protein) chain 1: QVQLVQPGAEVVKPGASVKLSCKTSGYTFTSNWMHWVKQAPGQGLEWIGEIDPSDSYTNYNQNFQGKAKLTVDKSTSTAYMEVSSLRSDDTAVYYCARGSNPYYYAMDYWGQGTSVTVSS chain 2: EIVLTQSPAIMSASPGERVTMTCSASSGVNYMHWYQQKPGTSPRRWIYDTSKLASGVPARFSGSGSGTSYSLTISSMEPEDAATYYCHQRGSYTFGGGTKLEIK | 0%
19 | unnamed (protein) chain 1: QVQLVESGGGVVQPGRSLRLSCAASGFTFSSFGMHWVRQAPGKGLEWVAYISSGSFTIYYADSVKGRFTISRDNSKNTLYLQMNSLRAEDTAVYYCARMRKGYAMDYWGQGTLVTVSS chain 2: DVVMTQSPLSLPVTLGQPASISCRSSQIIIHSDGNTYLEWFQQRPGQSPRRLIYKVSNRFSGVPDRFSGSGSGTDFTLKISRVEAEDVGVYYCFQGSHVPHTFGQGTKVEIK | 0%
20 | unnamed (protein) chain 1: EVQLVESGGGVVQPGRSLRLSCSASGFIFSRYDMSWVRQAPGKGLEWVAYISHGGAGTYYPDSVKGRFTISRDNSKNTLFLQMDSLRPEDTGVYFCARGGVTKGYFDVWGQGTPVTVSS chain 2: DIQMTQSPSSLSASVGDRVTITCRASGNIHNYLTWYQQTPGKAPKLLIYNAKTLADGVPSRFSGSGSGTDYTFTISSLQPEDIATYYCQHFWSIPYTFGQGTKLQIT | 16.8%
